Measurements as given in article PMC7864060, “The cation diffusion facilitator protein MamM's cytoplasmic domain exhibits metal-type dependent binding modes and discriminates against Mn^2+” (The Journal of Biological Chemistry, 2020).

Columns and labels:
[1] = biological target: the molecule itself; experiment: crystal structure; MamM CTD 20 mg/ml co-crystallised with 3.375 mM CuSO4; 10 mM Tris pH 8.0, 150 mM NaCl, 5 mM β-mercaptoethanol; vapor diffusion, 293 K
[2] = biological target: the molecule itself; experiment: PELDOR (pulsed EPR) spectroscopy; four-pulse PELDOR at 50 K on MTSL-labelled C267S MamM CTD (250 or 500 µM in D2O, 30% glycerol-d8) incubated with 3- or 5-fold excess of Cd2+, Ni2+, Cu2+, Fe2+ or Mn2+; distance between the Cys-275 labels of the two protomers

| Protein | binding result [1] | binding result [2] |
| --- | --- | --- |
| MamM CTD (cytoplasmic C-terminal domain of MamM, residues 215-318) (domain or fragment, UniProt V6F235 215-318, looked up, MamM, cation diffusion facilitator iron transporter of magnetotactic bacteria, UniProt Q6NE57, C-terminal domain, residues 215-318; Homodimer in all crystal forms; also called WT MamM CTD; MamM's cytoplasmic domain) EAVQNRIVEAAERVPGVRGVIHLRARYVGQDIWADMIIGVDPENTVEQAHEICEAVQAAVCGKIRRIESLHVSAEAREIGDTTKPSFSDQPLSFDEVMLSKVDN | binds | – |
| spin-labeled C267S MamM CTD (domain or fragment, UniProt V6F235 215-318, looked up, MTSL spin label on Cys-275, MamM, cation diffusion facilitator iron transporter of magnetotactic bacteria, UniProt Q6NE57, C-terminal domain, residues 215-318, with C267S; Only Cys-275 is left for labelling with MTSL; also called C267SSL; MamM CTD C267S) EAVQNRIVEAAERVPGVRGVIHLRARYVGQDIWADMIIGVDPENTVEQAHEISEAVQAAVCGKIRRIESLHVSAEAREIGDTTKPSFSDQPLSFDEVMLSKVDN | – | binds |
